Experimental data from patent publication US20240216271A1, “HYDROLYTICALLY DEGRADABLE HYDROGELS AND USES THEREOF” (GEORGIA TECH RESEARCH CORPORATION, priority 2021, published 2024).

Test system: primary monocytes derived from the bone marrow of C57BL/6J mice
Assay: Bone marrow derived macrophage co-culture with microgels (flow cytometry)
Type: cell-based
Settings: 48 hr of co-culture
Description: To assess the effects of microgels on immune cell polarization in vitro, a co-culture system was setup involving primary monocytes derived from the bone marrow of C57BL/6J mice with different formulations of crosslinked microgels. […] In addition, the overall expression of these markers was equivalent after 4 days of co-culture (FIGS. 11A-D).
Bone Marrow Derived Macrophage Co-culture: Bone marrow was isolated from the femurs and tibias of 6-week-old male C57BL/6J mice. Bones were cleaned of soft tissue, one side was cut to expose the marrow, and they were inverted in a 200 μL pipet tip cut to fit in a 1.5 mL Eppendorf tube. The bones were then centrifuged at 10,000×g for 15 sec to pellet the marrow in the bottom of the Eppendorf tube. Bones were discarded and cells were then resuspended in RBC Lysis Buffer (Biolegend 420302) to remove red blood cells. Cells were then washed in MACS buffer (DPBS pH 7.2, 0.5% BSA, 2 mM EDTA) and monocytes were isolated using the Monocyte Isolation Kit (BM), mouse (Miltenyi Biotec 130-100-629) and LS columns (Miltenyi Biotec 130-042-401).
Monocytes were cultured in RPMI 1640 media (Gibco 11875-085) supplemented with 10% heat-inactivated fetal bovine serum, 1% pen/strep, and 20 ng/mL murine M-CSF (Biolegend 574804) for 6 days in low-adherent plates. […] Samples were analyzed on a FACS-AriaIIIu flow cytometer (BD Biosciences).

IL-4: murine IL-4, 20 ng/ml; IL-4-polarized M2 positive control
cell viability / cell survival: increase in cell numbers
